The target of assay [1] is T1, dsRed.
T1 construct: also called dsRed (horizontal lines)
T1 chain: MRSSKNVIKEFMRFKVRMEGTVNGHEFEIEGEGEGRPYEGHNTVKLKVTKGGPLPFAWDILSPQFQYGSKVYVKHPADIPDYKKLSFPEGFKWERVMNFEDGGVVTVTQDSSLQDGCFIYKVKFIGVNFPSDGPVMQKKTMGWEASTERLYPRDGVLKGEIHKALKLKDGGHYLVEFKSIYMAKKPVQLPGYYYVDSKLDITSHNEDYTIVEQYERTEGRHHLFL
Briefly: ELISA, coated antigen, goat anti-human IgG-AP, pNPP, absorbance at 405 nm. Background: An ELISA detects its analyte on a solid surface through an enzyme-linked reagent.

In assay [2] the target is T1, dsRed. The description is as above.

Like-named read-outs stand apart in the source and are kept apart here.

B1: recombinant huMAb-anti-MSP10.2 (antibody, V domains shown)
VH: EVQLVESGGDLVKPGGSLRLSCVVSGFRISTSAMSWVRQVPGKGLEWVSDISESGGSKDYADSVRGRFTISRDTSKNTLYLQMNSLGADDTALYYCAKSVGYFDTSGYYRWDYFDSWGQGTLVTVSS
VL: EIVLTQSPDTLSLSPGETATLSCRASQTVRRNSLAWYQQKPGQAPRLLIYGASDRATGIPDRFSGSGFGTDFTLTVSGLEPEDFAVYYCQQYGTSPRTFGQGTKLEIK
notes: Same heavy chain as huMAb-anti-MSP10.1 with a different kappa light chain; Cloned and expressed like huMAb-anti-MSP10.1 (IgG1m17,1, kappa; N. benthamiana)
Turning to B1, in the assay with dsRed [1], the binding result is listed as “no binding (tested: 100 µg/ml)”.

B2: recombinant huMAb-anti-MSP10.1 (antibody, V domains shown)
VH: B1 VH
VL: EIVLTQSPDILSLSPGERATLSCRASQALTAKYLAWYQQKPGQVPRLLIYGSSTRATGIPDRFRGSGSGTDFTLTISRLEPADSAVYYCQQYEDSPWTFGQGTKLEIK
notes: also called recombinant human anti MSP-10 antibody huMAb-anti-MSP10.1
As for B2, the binding result with dsRed [2] is reported as “no binding (tested: 100 µg/ml)”.
